Assays:
[1] = Hydrodynamic diameter by dynamic light scattering (DLS); format: physicochemical; design: Stability: key to the marks not given beside the values
Procedure: Characterization of the size of iTEPB-pOVA and iTEPB-iTEPA-pOVA fusions. The particle size distribution of the iTEP fusions was determined by dynamic light scattering (DLS) using a Zetasizer Nano-ZS instrument (Malvern Instruments, Malvern, UK) as previously described.^(29) The fusions were prepared at 5 μM and 25 μM in PBS and equilibrated at 37° C. for the measurement. The reported results represented the average particle size by number.
Dynamic light scattering (DLS) measurement. The measurement was carried out as previously described. iTEP, iTEP-MPBH-ABA-Sali conjugate, or PTX NP were measured at 25 μM in PBS at 37° C. using a Malvern Zetasizer Nano system (Malvern, Chester County, PA, USA).
Characterization of hydrodynamic diameters of iTEP-vaccine fusions. Hydrodynamic diameters of iTEP-vaccine fusions were determined by dynamic light scattering (DLS) using a Zetasizer Nano-ZS instrument (Malvern Instruments, Malvern, UK) as previously described (Zhao et al., Mol Pharm, 2014; 11(8):2703-12). The samples were resuspended at concentrations of 5, 25, 50, and 100 μM in PBS and sat at room temperature overnight before measurement. Some samples were kept in 5% C02 at 37° C. for 16 h before DLS measurement. Hydrodynamic diameter results of the sample of 5 μM concentration were reported because they were not affected by the used sample concentrations. Hydrodynamic diameters were presented using the size-by-number distribution approach. Z-average values and sizes-by-intensity data, however, were also reported.

[2] = system: DC2.4 cells; assay: Presentation of the CTL epitope […] by DCs (flow cytometry); format: cell-based, murine; settings: 16 h incubation with DC2.4 cells
Procedure: Presentation of the CTL epitope, […], by DCs. Cells of a murine DC line (DC2.4, a gift from K. Rock)^(32) were plated at 2.5×10^5/500 μL/well in 24-well plates. 500 μL of OVA, […] peptide (SEQ ID NO: 22), or iTEPB-iTEPA-pOVA NP (SEQ ID NO: 56) (iTEP-pOVA NP hereafter) were dissolved in cell culture media and added to the wells containing DCs. The cells were further cultured for 16 hrs. at 37° C. with 5% CO2 before they were collected and washed with PBS. The MHC class I complex, H-2kb/[…] presented on DC surface was stained with a PE-tagged monoclonal antibody 25-D1.16 (Biolegend, 1:100 dilution) and quantified with flow cytometry (5×10^4 events collected per sample). The data are presented as MFI normalized to the MFI of untreated DC2.4 cells.
Presentation of […] epitope vaccine by DCs. The presentation was studied as previously described (Cho et al., J Drug Target, 2015; p 1-12). The concentration of iTEP-vaccine fusions (NPs) used in this experiment was 5 μM. The results of presentation were shown as mean fluorescence intensity (MFI) of 5000 treated, live cells in a given treatment, which were normalized to the MFI value of untreated DC2.4 cells.

[3] = system: B3Z cells; assay: B3Z CD8+ T cell hybridoma activation assay; format: cell-based; settings: for activation of B3Z cells: DC2.4 cells pre-incubated with antigen
Procedure: B3Z CD8+ T cell hybridoma activation assay. B3Z cells (a gift from N. Shastri) are a CD8+ T-cell hybridoma engineered to secrete β-galactosidase when their T-cell receptors are engaged with an […]:H2K^b complex.^(33) To do this assay, 1×10^5 DC2.4 cells/well were set in 96-well plates. OVA, […] peptide (SEQ ID NO: 22), and iTEP-pOVA NP (SEQ ID NO: 56) at indicated concentrations were loaded into the cell culture for 16 hours and then washed away. 1×10^5 B3Z cells/well were added to the DC2.4 cell culture and co-cultured with DC2.4 cells for 24 hours. The cells were washed with PBS before 100 μL of lysis buffer (PBS with 100 mM 2-mercaptoethanol, 9 mM MgCl2, 0.125% NP-40) together with 0.15 mM chlorophenol red β-galactoside were added into the wells. After the plates were incubated at 37° C. for 4 hours, the reaction was stopped with 50 μL/well of 15 mM EDTA and 300 mM glycine. The OD at 570 nm was measured and the OD at 630 nm was used as reference. The OD was used as an indicator as activation status of B3Z cells.
Activation of B3Z hybridoma (CD8+T) cells. This assay was done with a protocol described previously (Cho et al., J Drug Target, 2015; p 1-12).

[4] = SDS-PAGE analysis of NPs after GSH treatment; format: physicochemical; settings: GSH overnight, non-reducing gels
Procedure: SDS-PAGE was used to analyze responses of the RED-NP, the MS-NP, and the ST-NP to the treatment of 1 mM GSH. 1 mM but not 10 μM of GSH reduced disulfide bonds inside RED-NP. A large fraction of polymers of the RED-NP fusion (iTEPB70-iTEPA28-(G8C)4-pOVA; (SEQ ID NO: 61)) became monomers due to the treatment of 1 mM GSH, showing as a 50-kDa band on the gel. In contrast, GSH had no effect on polymerization status of the fusions of MS-NP and ST-NP. Non-reducing gels and 25 μg of each fusion were used for the analysis.

[5] = after 16 h incubation at 37° C.
[6] = after 16 h incubation in 5% CO2 at 37° C.
[7] = after the 16 h incubation at 37° C.

Row | Molecule | Stability [1] | hydrodynamic diameter by intensity [1, 5] [nm] | hydrodynamic diameter by number distribution [1, 6] [nm] | Z-average [1, 7] [nm] | hydrodynamic diameter by number distribution ([1]; before incubation (0 h), 5 μM) [nm] | Z-average ([1]; before the incubation) [nm] | hydrodynamic diameter by intensity ([1]; before the incubation (0 h)) [nm] | presentation of SIINFEKL by DCs [2] | activation of B3Z cells [3] | response to GSH treatment (reduction of disulfide bonds, SDS-PAGE) [4] | mean diameter (DLS) ([1]; 5 μM in PBS, 37° C., by number) [nm] | mean diameter / size (DLS) ([1]; 25 μM in PBS, 37° C., by number) [nm] | B3Z activity, fold more active than DC-treated B3Z cells [3] [fold] | B3Z activity, fold more active than OVA/DC-treated B3Z cells [3] [fold] | B3Z activity, fold more active than iTEPB-pOVA/DC-treated B3Z cells [3] [fold]
1 | ST-NP: stable NP of the fusion iTEPB70-iTEPA56-pOVA (SEQ ID NO: 60) (protein) GGAGVPGGAGVPGGAGVPGGAGVPGGAGVPGGAGVPGGAGVPGGAGVPGGAGVPGGAGVPGGAGVPGGAGVPGGAGVPGGAGVPGGAGVPGGAGVPGGAGVPGGAGVPGGAGVPGGAGVPGGAGVPGGAGVPGGAGVPGGAGVPGGAGVPGGAGVPGGAGVPGGAGVPGGAGVPGGAGVPGGAGVPGGAGVPGGAGVPGGAGVPGGAGVPGGAGVPGGAGVPGGAGVPGGAGVPGGAGVPGGAGVPGGAGVPGGAGVPGGAGVPGGAGVPGGAGVPGGAGVPGGAGVPGGAGVPGGAGVPGGAGVPGGAGVPGGAGVPGGAGVPGGAGVPGGAGVPGGAGVPGGAGVPGGAGVPGGAGVPGGAGVPGGAGVPGGAGVPGGAGVPGGAGVPGGAGVPGGAGVPGGAGVPGGAGVPGGAGVPGGGVLPGVGGVLPGVGGVLPGVGGVLPGVGGVLPGVGGVLPGVGGVLPGVGGVLPGVGGVLPGVGGVLPGVGGVLPGVGGVLPGVGGVLPGVGGVLPGVGGVLPGVGGVLPGVGGVLPGVGGVLPGVGGVLPGVGGVLPGVGGVLPGVGGVLPGVGGVLPGVGGVLPGVGGVLPGVGGVLPGVGGVLPGVGGVLPGVGGGGGGGGGCGGGGGGGGCGGGGGGGGCGGGGGGGGCGESIINFEKLTESIINFEKLTGG | ++ | 74.45±18.99 | 55.36±12.88 | 70.42 | 56.01±13.54 | 74.59 | 78.56±21.60 | significantly weaker presentation than the MS-NP | much less robust in activating B3Z cells than the MS-NP | did not respond to the treatment |  |  |  |  | 
2 | G(GAGVPG)70G(GVLPGVG)28G(ESIINFEKLT)2GG (protein) GGAGVPGGAGVPGGAGVPGGAGVPGGAGVPGGAGVPGGAGVPGGAGVPGGAGVPGGAGVPGGAGVPGGAGVPGGAGVPGGAGVPGGAGVPGGAGVPGGAGVPGGAGVPGGAGVPGGAGVPGGAGVPGGAGVPGGAGVPGGAGVPGGAGVPGGAGVPGGAGVPGGAGVPGGAGVPGGAGVPGGAGVPGGAGVPGGAGVPGGAGVPGGAGVPGGAGVPGGAGVPGGAGVPGGAGVPGGAGVPGGAGVPGGAGVPGGAGVPGGAGVPGGAGVPGGAGVPGGAGVPGGAGVPGGAGVPGGAGVPGGAGVPGGAGVPGGAGVPGGAGVPGGAGVPGGAGVPGGAGVPGGAGVPGGAGVPGGAGVPGGAGVPGGAGVPGGAGVPGGAGVPGGAGVPGGAGVPGGAGVPGGAGVPGGAGVPGGAGVPGGESIINFEKLTESIINFEKLTGG |  |  | 8.39±1.20 | 422.90 | 71.94±20.81 | 101.00 | 111.90±35.02 | significantly more |  | did not respond to the treatment | 81.2±14.2 | 71.9±20.8 | 4.38 | 3.81 | 2.9
3 | RED-NP: reductive-environment dependable NP, disulfide stabilized fusion iTEPB70-iTEPA28-(G8C)4-pOVA (SEQ ID NO: 61) (protein) GGAGVPGGAGVPGGAGVPGGAGVPGGAGVPGGAGVPGGAGVPGGAGVPGGAGVPGGAGVPGGAGVPGGAGVPGGAGVPGGAGVPGGAGVPGGAGVPGGAGVPGGAGVPGGAGVPGGAGVPGGAGVPGGAGVPGGAGVPGGAGVPGGAGVPGGAGVPGGAGVPGGAGVPGGAGVPGGAGVPGGAGVPGGAGVPGGAGVPGGAGVPGGAGVPGGAGVPGGAGVPGGAGVPGGAGVPGGAGVPGGAGVPGGAGVPGGAGVPGGAGVPGGAGVPGGAGVPGGAGVPGGAGVPGGAGVPGGAGVPGGAGVPGGAGVPGGAGVPGGAGVPGGAGVPGGAGVPGGAGVPGGAGVPGGAGVPGGAGVPGGAGVPGGAGVPGGAGVPGGAGVPGGAGVPGGAGVPGGAGVPGGAGVPGGAGVPGGAGVPGGGVLPGVGGVLPGVGGVLPGVGGVLPGVGGVLPGVGGVLPGVGGVLPGVGGVLPGVGGVLPGVGGVLPGVGGVLPGVGGVLPGVGGVLPGVGGVLPGVGGVLPGVGGVLPGVGGVLPGVGGVLPGVGGVLPGVGGVLPGVGGVLPGVGGVLPGVGGVLPGVGGVLPGVGGVLPGVGGVLPGVGGVLPGVGGVLPGVGGCGCGCGCGESIINFEKLTESIINFEKLTGG |  | 70.99±17.52 | 53.05±12.38 | 76.89 | 61.94±12.71 | 87.59 | 75.55±15.32 | significantly better than that of the ST-NP | failed to activate B3Z cells as effectively as the MS-NP but, again, fared better than the ST-NP | can be reduced by 1 mM but not by 10 μM of GSH |  |  |  |  | 
